{"source": "patent US20150368340A1", "about": "(US Dept. of Health and Human Services, published 2015)", "molecules": {"B1": {"name": "HN3 single-domain VH displayed on phage (clone HN3) (VHH)", "VHH": "QVQLVQSGGGLVQPGGSLRLSCAASYFDFDSYEMSWVRQAPGKGLEWIGSIYHSGSTYYNPSLKSRVTISRDNSKNTLYLQMNTLRAEDTATYYCARVNMDRFDYWGQGTLVTVSS"}, "B2": {"name": "HS20 human IgG (HS20 Wt mAb) (antibody, V domains shown)", "VH": "EVQLLESGGGLVQPGGSLRLSCAASGFTFSSYAMSWVRQAPGKGLEWVSTIQKQGLPTEYADSVKGRFTISRDNSKNTLYLQMNSLRAEDTAVYYCAKNRAKFDYWGQGTLVTVSS", "VL": "DIQMTQSPSSLSASVGDRVTITCRASQSISSYLNWYQQKPGKAPKLLIYNASMLQSGVPSRFSGSGSGTDFTLTISSLQPEDFATYYCQQNRGFPLTFGQGTKVEIK", "modifications": "N-glycosylation site at residue 50 of SEQ ID NO: 16 (CDR2)", "notes": "also called HS20 IgG; HS20 mAb"}, "B3": {"name": "HN3-human Fc fusion protein (HN3-hFc) (Fc fusion, not shown: a dimerising Fc or GST)", "chain": "QVQLVQSGGGLVQPGGSLRLSCAASYFDFDSYEMSWVRQAPGKGLEWIGSIYHSGSTYYNPSLKSRVTISRDNSKNTLYLQMNTLRAEDTATYYCARVNMDRFDYWGQGTLVTVSSS", "notes": "also called HN3 human mAb"}, "B4": {"name": "HN3(VH)-PE38 immunotoxin (other)", "chain": "QVQLVQSGGGLVQPGGSLRLSCAASYFDFDSYEMSWVRQAPGKGLEWIGSIYHSGSTYYNPSLKSRVTISRDNSKNTLYLQMNTLRAEDTATYYCARVNMDRFDYWGQGTLVTVSSSAAKASGGPEGGSLAALTAHQACHLPLETFTRHRQPRGWEQLEQCGYPVQRLVALYLAARLSWNQVDQVIRNALASPGSGGDLGEAIREQPEQARLALTLAAAESERFVRQGTGNDEAGAANGPADSGDALLERNYPTGAEFLGDGGDVSFSTRGTQNWTVERLLQAHRQLEERGYVFVGYHGTFLEAAQSIVFGGVRARSQDLDAIWRGFYIAGDPALAYGYAQDQEPDARGRIRNGALLRVYVPRSSLPGFYRTSLTLAAPEAAGEVERLIGHPLPLRLDAITGPEEEGGRLETILGWPLAERTVVIPSAIPTDPRNVGGDLDPSSIPDKEQAISALPDYASQPGKPPREDLK"}}, "key": {"[1]": {"target": "cell surface-associated glypican-3 (GPC3) (human) (UniProt P51654)", "experiment": "co-IP of GPC3 and Wnt3a from HepG2 xenograft tumor tissue after three weeks of 20 mg/kg HS20 (mutated form); blocked partner Wnt3a (FIG. 17B)"}, "[2]": {"target": "T1, GPC3 C-terminal fragment (human, UniProt P51654 359-559, limits assumed)", "T1 construct": "domain: C-terminal fragment; also called C-terminus alone", "T1 sequence (looked up)": "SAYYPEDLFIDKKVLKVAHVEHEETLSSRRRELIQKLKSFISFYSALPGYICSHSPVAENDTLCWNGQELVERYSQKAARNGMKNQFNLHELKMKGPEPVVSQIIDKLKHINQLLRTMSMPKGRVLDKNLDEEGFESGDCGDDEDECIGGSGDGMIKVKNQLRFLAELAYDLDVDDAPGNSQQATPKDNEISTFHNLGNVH", "experiment": "phage ELISA on recombinant GPC3 fragments (FIG. 5B)"}, "[3]": {"target": "T2, GPC3 N-terminal fragment (human, UniProt P51654 25-358)", "T2 construct": "domain: N-terminal fragment; also called N-terminus alone", "experiment": "phage ELISA on recombinant GPC3 fragments (FIG. 5B)"}, "[4]": {"target": "T3, recombinant human GPC3 with His tag (GPC3-his) (human, UniProt P51654 25-559, heparan sulfate chains)", "T3 construct": "range 25-559; also called GPC3 alone; purified GPC3; not shown: six-histidine tag", "experiment": "ELISA on recombinant GPC3 protein (FIG. 13B)"}, "[5]": {"target": "cell surface-associated glypican-3 (GPC3) (human) (UniProt P51654)", "experiment": "cell-based or functional assay"}, "[6]": {"target": "T3, recombinant human GPC3 with His tag …", "experiment": "ELISA on recombinant GPC3 protein against HS molecules alone (FIG. 13B)"}, "[7]": {"target": "T4, cell surface-associated glypican-3 (GPC3) (human, UniProt P51654 25-554, two heparan sulfate (HS) chains on the C-terminal portion; GPI anchor)", "T4 construct": "whole, on cells; also called GPC3 on G1 (A431.GPC3+) cells; GPC3 on HCC cells", "experiment": "flow cytometry on G1 cells, HN3-hFc titrated, one-site binding fit (FIG. 4B)"}, "[8]": {"target": "T4, cell surface-associated glypican-3 …", "experiment": "cell-based or functional assay"}, "[9]": {"target": "T3, recombinant human GPC3 with His tag …", "experiment": "ELISA, purified GPC3 coated at 1 µg/ml, HN3-hFc titrated, one-site binding fit (FIG. 4A)"}, "[10]": {"target": "T4, cell surface-associated glypican-3 …", "experiment": "cell-based or functional assay", "remark": "listed apart in the source"}}, "data": [{"molecule": "HS20 Mt (HS20 IgG with the N-glycosylation site of the VL removed) (antibody)", "values": [{"measurement": "percent of the GPC3-Wnt3a interaction blocked", "setting": "[1]", "value": 70, "unit": "%"}]}, {"molecule": "B1", "values": [{"measurement": "binding result", "setting": "[2]", "value": "no binding"}, {"measurement": "binding result", "setting": "[3]", "value": "no binding"}]}, {"molecule": "B2", "values": [{"measurement": "Kd", "setting": "[4]", "value": 0.75, "unit": "nM"}, {"measurement": "decrease in wound closure efficiency (wound healing assay, Hep3B cells, 50 µg/ml HS20)", "setting": "[5]", "value": "> 30", "unit": "%"}, {"measurement": "fold stronger binding than on HS alone", "setting": "[6]", "value": "≥ 1000", "unit": "fold"}]}, {"molecule": "B3", "values": [{"measurement": "Kd", "setting": "[7]", "value": 0.15, "unit": "nM"}, {"measurement": "cell growth inhibition (WST-8), Hep3B cells, IC50", "setting": "[8]", "value": "~50", "unit": "µg/mL"}, {"measurement": "cell growth inhibition (WST-8), Huh-7 cells, IC50", "setting": "[8]", "value": "~50", "unit": "µg/mL"}, {"measurement": "Kd", "setting": "[9]", "value": 0.64, "unit": "nM"}]}, {"molecule": "B4", "values": [{"measurement": "cytotoxicity IC50 (WST-8), G1 cells, molar", "setting": "[8]", "value": 0.2, "unit": "pM"}, {"measurement": "cytotoxicity IC50 (WST-8), Hep3B cells, molar", "setting": "[8]", "value": 0.4, "unit": "pM"}, {"measurement": "cytotoxicity IC50 (WST-8), HepG2 cells, molar", "setting": "[8]", "value": 10, "unit": "nM"}, {"measurement": "cytotoxicity IC50 (WST-8), Huh-1 cells, molar", "setting": "[8]", "value": 1.2, "unit": "pM"}, {"measurement": "cytotoxicity IC50 (WST-8), Huh-7 cells, molar", "setting": "[8]", "value": 1.3, "unit": "nM"}, {"measurement": "cytotoxicity IC50 (WST-8), G1 cells", "setting": "[10]", "value": 0.01, "unit": "ng/mL"}, {"measurement": "cytotoxicity IC50 (WST-8), Hep3B cells", "setting": "[10]", "value": 0.02, "unit": "ng/mL"}, {"measurement": "cytotoxicity IC50 (WST-8), HepG2 cells", "setting": "[10]", "value": 549, "unit": "ng/mL"}, {"measurement": "cytotoxicity IC50 (WST-8), Huh-1 cells", "setting": "[10]", "value": 0.06, "unit": "ng/mL"}, {"measurement": "cytotoxicity IC50 (WST-8), Huh-4 cells", "setting": "[10]", "value": "> 1000", "unit": "ng/mL"}, {"measurement": "cytotoxicity IC50 (WST-8), Huh-7 cells", "setting": "[10]", "value": 64, "unit": "ng/mL"}]}]}
